These results are taken from article PMC11470055.

The assay addresses AP-DT/AA-LRRTM2 (UniProt O43300). The assay is described as follows: immunostaining of cells or tissue; Nrxn-binding assay: live COS-7 cells expressing biotinylated AP-LRRTM2 (WT or mutants), BirA-ER and EGFP incubated 20 min with Nrxn solution (2 µg Nrxn-1β-Fc + 1.3 µg AlexaFluor647 anti-human Fc), then labelled with mSA-ATTO565 in Tyrode's solution (2 mM CaCl2, pH 7.4) and imaged live; Nrxn1β-Fc surface intensity normalised to AP-LRRTM2 expression.
Sequence of UniProt O43300 (O43300 34-516 D259A/T261A): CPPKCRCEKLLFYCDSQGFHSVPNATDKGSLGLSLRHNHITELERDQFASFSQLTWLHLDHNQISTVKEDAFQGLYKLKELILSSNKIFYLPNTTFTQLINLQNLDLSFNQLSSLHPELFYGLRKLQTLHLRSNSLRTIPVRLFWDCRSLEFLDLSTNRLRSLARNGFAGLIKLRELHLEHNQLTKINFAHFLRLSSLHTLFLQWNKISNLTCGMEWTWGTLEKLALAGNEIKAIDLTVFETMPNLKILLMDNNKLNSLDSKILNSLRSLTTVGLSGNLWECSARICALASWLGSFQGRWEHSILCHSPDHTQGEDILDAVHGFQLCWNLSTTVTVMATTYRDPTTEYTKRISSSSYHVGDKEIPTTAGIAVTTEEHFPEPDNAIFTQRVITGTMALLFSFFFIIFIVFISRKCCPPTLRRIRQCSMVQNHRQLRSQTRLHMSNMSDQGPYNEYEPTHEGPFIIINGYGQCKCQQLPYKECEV

On to Nrxn1β-Fc (-SS4) (Fc fusion), for which the percent loss of Nrxn1β-Fc binding against AP-LRRTM2-WT came out at 50%.
